Measurements taken from the DeepSol protein solubility set.

Test: soluble on expression in E. coli; label from the status in PepcDB or PDB records

| Sequence | soluble on expression in E. coli |
| --- | --- |
| MSLKLVKPKKFLGQHFLKDLKVAQDIADTVDTFPELPVLEVGPGMGVLTQFLVKKDRLVKVVEVDYESVAYLREAYPSLEDHIIEDDFLKMNLHRLFDGKPFVLTGNYPYNISSQIFFKMLENKDIIPCCTGMIQKEVAERIAAGPGSKTYGILSVLIQAWYKVEYLFTVSEHVFNPPPKVKSAVIRMTRNDTKEGHHHHHH | not soluble |
| MAHHHHHHMNYDKLNLFKENFDMMYVIEEIETHLHEKKHLLCDINENILISEKNKTSIDIYEKHLIEKQIQILKKNKINYKKLNNINYVKYFLPLCIQPKTNNTDKCLSERDVYMKNFKKKNILRELHVKKRLTEYRINQFIEKYTGKFLKNNVLHKQISKIYNNKSKIEIFIKGDNFSYNRVIGDIAFFDSKPNVLLENVKYIVRKRKKKKLNNIKKNINI | not soluble |
| MNLVTDQDLLDVVNFFNRPLHALIAEVSKTTSDLELVRSTTQGIENICLLLDLVGTECIKDASAAKTSVLEHHHHHH | not soluble |
| MDLSPLDVRYQEFPRAFRGYHRGAVREYLARVAEAMEALIRENEVLKERLRALEEENARLKEAEGELKRAVVAAERIARELKAQAEREAELLRKEAQAAKERLLQEAAQELKRLRAEIERARQEKALFLGQVRALFEGYLEALKRLEKTP | soluble |
| MNAILHDMAVPFYKPVSNECSLFEAASRKGLPLLLKGPTGCGKTRFVEHMAARMGRKLYTVACHDDLSAADLIGRYLLKGGATEWVDGPLTRAVREGAICYLDEVVEARKDVTVVLHPLTDNRRTLMIDRTGEELVAPPGFMLVASYNPGYQNILKRLKPSTRQRFLSIGFTFPDPVTETAVVARESGLSEAKVAPLVRLAGHVRALSGMDLEEGVSTRLLVYAASLMAGGMSIEAALEAAVIEPLTDEPDVAQALRDLIATVYGLEHHHHHH | not soluble |
| MKNFVRTTLLAATLAGVSFGAFATAVPNPPLPAQDPIVQHLKLTNDQITRIKKLHQQLETDVSQISMKGIKDGALIEVIKSGKWDDAAVKQQLAAFSNIEQQARYYRVKYYFDLSKVLTPEQRQQVQQDLAQALE | not soluble |
| MRGSHHHHHHGIQMVSIAINGFGRIGRLVLRIALERKNIDVVAINDPFISVDYAAYMFKYDSTHGKYKGEVSHDGSNLIINGKKVAVFQEKDPATLPWGKLGVDIAVDSTGVFKELDSAQKHIDAGAKKVVITAPSKTAPMFVVGVNEDKYNGEKIVSNASCTTNCLAPIAKIINDEFGIEEGLMTTVHSITATQKTVDGPSHKDWRGGRTASGNIIPSSTGAAKAVGKVLPELQGKLTGMAFRVPTTDVSVVDLTVKLVKAATYDEIKAAVKKVSEGKLKDVVGYTEDAVVSSDFLGDTHSTIFDAAAGIQLSPKFVKLVAWYDNEYGYSTRVVDLVEHVA | soluble |
| MRLTDQKRESIVQAAIAEFGDRGFEITSMDRIAARAEVSKRTVYNHFPSKEELFAEMLQRLWNCAPPQSEVVYRPLVSLREQLLELLWGKMRNLTDSSFLDLARVVVGATIHSPERAQVWLARINEREETFSAWIRAAQKDGRLKPVDPGFAATQMHALLKSFAFWPQVTFNAALLTPQEQSNVVESALNMFLGWYEIPG | soluble |
| MIIPEYGRTLTPEEWRPVVDEMLEATHIIFTTHENSDGDGLGSQVALALALKALGKEVAIFNPTEVPPNYLFLKELHEINLFRDRDEESMQEFFLADLLVVLDANLHDRIGRLWPHVEFARQMSRLKVLCIDHHLEPEDFADITVCETYASSTGELVCDLVTALELRTGQQLFTPEVASALYAAIMTDTGSFRFPKTTPYTYRLAGMLVEKGADPELVYDRIYNALTPEALKLLGLSLSNIKIIENGLISWLFITQEMLEQTGSKLFDTDLIIRYLLSVPTVKVAVLLVEMQDGRCKVSFRSRGKIYVNQLAKHYGGGGHMNAAGCLLRMSAEKAQLVILEDVRKFTLEQVDS | soluble |
| MAHHHHHHMLHLHRCAAQGDWLFLKNLHLVLDWASVLEKELCAMPIPSAEFRLIITTEPHDSFPVVLLRMSAKVTIEAPPGMKQNLLQSYTTWDEAFLQGKTKTTSQVLFGLAWFHALLQERRGYIPQGWVKFYEFSSADLKSAADVLCTLSRDKMDWTTVRGLLQECIYGGRLENSHDERVLERLISRIFNDETLVSCDRRLYDDMRVPATNVHRAVVQFIREHLPDADSPSILSLPDNADRAVKEQFALKLTEDLHTVSHLAQVCVSATEAWRTLLAPVLELWKNSALEPEGNAATVSPGETKEDPMSIFFMRELELLVGIVSNLTETFYDLRCVVEGTLIPSPELREEGTELIGGRVPPRWLDLMDGPKDVKLWFALLRRRRDTMMEYAKRPFSPSTPFDLIDFLRPQTFLNALRLYTVRVSNEALVELMLVATPVGRTADRLGVGFTLKGKSIHLQGALLDAQGILSLPSASSPSSTPLSCDVWAAWMSKHNTEGLARIPIYTNAGRTAAIMDLFLSCDSDMAEKLLLGGVAAFLMSV | not soluble |
| MHTPVTIIGAGLGGLTLARVLHVHAIPVTVYEADSSPSARAQGGLLDIHDYNGQLAVEAAGLTDEFRAIVLEGRQALRVLDPDGTVRLDRADDGTGGRPEVQRGDLRQILLDSLPAGTVRWGHKVSRARPLGDGRHEVTFADGGTVVTRLLVGADGAWSRVRPLLSSATPEYVGKSVVETYLFDAGTRHPVAAKTVGGGMLIAPAPGKEIFAHREKDDTLHAYVGLSRPLDWFAGIDFTDGAAATARIAREFDGWATELTALITDTDVAPALRALHALPAGHRWERVPGVTLLGDAAHLAAPNGEGANLAMLDGAELGTALAAHPGDVEAALAEYERAMFPRSAEAAGDDMIGMDSPDNTAQGLIDLITENGGLEHHHHHH | soluble |
| MSSKVSPLAPTDVPAMPMIAGVRLATAAAGIRYKGRTDVLLVEMEKGTTVAGVFTTSKCASAPVEWCRDKLKGGSARALVVNSGNANAFTGKSGKQAATLTAQLAAKAIGCKPAEVFLASTGVIGEPLDATKFDGVLDALALDAGPDGWMDAAKAIMTTDTFPKVATATVKLGKAKVTINGMAKGAGMIAPDMATMLSFIFTDAPLSASCLQALLKAGVTDTFNAVTIDGDTSTSDTLLAFATGAAAENGAPKISRASDPRLKAFVKAFNAVLADLAEQVARDGEGARKLVEIIVEGAKTKVSARKIALSIANSPLVKTAIAGEDANWGRVVMAVGKAGEPADRDKLSISFNGIRVAKAGARDPSYNEKEVSAEMKKPVIQIKVALGLGKGRDRVLTCDLTKEYVAINGDYRSLEHHHHHH | not soluble |
| MGSDKIHHHHHHMVMTVGDSRVGKSTVIKLLLEMYQIQGKRLKVYDHDNRDRFLAYKDLVCIEKIDFFNTRTDRIFNDLIVDSLDIILVDMPGQYLDKICQYIIQSELLGALAEYGWSLTFVQPISHRTDCIDYLSQIVQTATNNANYVVVKNYHFAPEFREYEQTMAKNLLMIGGTEIELTALHRNHYQAMEKAGIPYSQVCQDISMILFLRSYIYQWIKKFHDSVMDNDLAVKYLGLD | not soluble |
| MKLPYSITVTYDHRTSPHIPFSSHIGKQNSFFSFLSRKKSMYHHITFCSVPATDGRARGQRPTGHFHLFFVVNRLLPRTRSTTKPSCSFAQPVTPRTREGAGVRGHRRRRRGSLSLIPWKTSNDKQKDDKRSLFCYMREIIAVGNFSKYMLLEHHHHHH | not soluble |
| MGSDKIHHHHHHMLMRDVIPQVLNRGTAMLTQDLLETPPQKTFHHAIDIYLKDSNAFMNTYFARYFEWQGICRERWFHECIHDNLLAAGGVFVTKRAHQEYVEETFPFQRVDCYLNTFQVKQCSAYLLFRFCVGGKPVSLGYQQIVFADRDKRISRFPHGIIERVKEYELVLPGLAS | not soluble |
| DADLATGAKVFSANCAACHAGGINLVNAEKTLKKEALEKFGMNSIVAITTQVTNGKAGMPAFKGRLTDDQIAAVAAYVLDQAEKGW | soluble |
| GALVPRGSHMADPSLNNPVVIQATRLDASILPRNVFSKSYLLYVIAQGTDVGAIAGKANEAGQGAYDAQVKNDEQDVELADHEARIKQLRIDVDDHESRITANTKAITALNVRVTTAEGEIASLQTNVSALDGRVTTAENNISALQADYVSKTATTSQSLASPLNVTTSYSVGGKKVVGARQTGWTAATGTANKGVFDADLTFAVSDTYTQSEIQAIANALITERRRTKAMEDALRAHGLID | soluble |
| MGSDKIHHHHHHMKVLLINGSPNQYGCTYTALNEITKVLSKHDIKTEILYLGKETIPGCISCASCFETGKCIRNDKVNELIEDLDNIDGIIIGSPVYFSSATGQLTSFLDRLFFIAGSRMATKLGASVVSCRRGGASATFDQLNKYFSISNMPIVSSQYWNQVHGFTPEDVMKDEEGLQTMRTLGENMAWLLKCISAGKKAGIKEPQYEETIMTNFIK | not soluble |
